Laboratory results taken from US20170226204A1 (PERONGEN BIOTHERAPEUTICS SUZHOU, published 2017).
Residue numbers refer to the chain shown, from its start.

T1: human CD7 molecule (human, UniProt P09564 26-240)
T1 construct: whole, on cells; also called CD7 protein
T1 sequence (looked up): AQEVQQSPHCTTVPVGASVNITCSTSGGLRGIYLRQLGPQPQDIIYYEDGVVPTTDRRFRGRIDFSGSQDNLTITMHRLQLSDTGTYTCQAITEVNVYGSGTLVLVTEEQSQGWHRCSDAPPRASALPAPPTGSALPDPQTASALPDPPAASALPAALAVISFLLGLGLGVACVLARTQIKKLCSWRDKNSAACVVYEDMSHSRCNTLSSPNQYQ

B1: anti-human CD7 nanobody clone 4 (VHH)
VHH: DVQLQESGGGSVQAGGSLRLSCAASGYTTSRLCMAWFRQFPGKEREGVANVRLGGYKPAYADSVKGRFTLSEDSAKNTVYLEMNSLQPEDTAMYYCAADPGGGGSCPVALVRGDFDYWGQGTQVTVSI
B2: anti-human CD7 nanobody clone 6 (VHH)
VHH: DVQLQESGGGSVQAGGSLRLSCAASGYTYSTYCMGWFRQAPGKEREGVATIDSDGSTSYADSVKGRFTISRDNAKNTLNLQMSSLKPEDTAMYYCAARFGPMGCVDLSTLSFGHWGQGTQVTVSI
B3: anti-human CD7 nanobody clone 1 (VHH)
VHH: DVQLQESGGGSVQAGGSLRLSCPASGYTFSHYCMGWNRQAPGKEREEVATIDTDDTPTYADSVMGRFTISRDNANNALYLQMNDLKPEDTSMYYCAIWMKLRGSCHDRRLEVRGQGTQVTVSI
B4: anti-human CD7 nanobody clone 3 (VHH)
VHH: B3 VHH with N37L, D55S, I97T, K100G

Each binder was assayed against T1, human CD7 molecule (assay: phage whole-cell ELISA, 293T-CD7+ against 293T-CD7- cells; positive when OD is 2.5 times that of the control well).

Binding result, binds:
B1
B2
B3
B4
